A short description of data set [1]: Statinase activity of samples of BL21(DE3) culture expressing rPON3. In kind it is biochemical. Particulars: culture sample. The method, then: (§1) The hydrolysis of the statin lactones (mevastatin, lovastatin and simvastatin) was analyzed by high performance liquid chromatography (HPLC) using a Beckman System Gold HPLC with a Model 126 Programmable Solvent Module, a Model 168 Diode Array Detector set at 238 nm, a Model 7125 Rheodyne manual injector valve with a 20 μl loop, and a Beckman ODS Ultrasphere column (C 18, 250×4.6 mm, 5 μm). Lovastatin (Mevacor) and simvastatin were purchased as 20 mg tablets from Merck, from which the lactones were extracted with chloroform, evaporated to dryness and redissolved in methanol. Mevastatin was purchased from Sigma.
In a final volume of 1 ml, 10-200 μl of enzyme solution and 10 μl of substrate solution in methanol (0.5 mg/ml) were incubated at 25° C. in 50 mM Tris/HCl (pH 7.6), 1 mM CaCl2. Aliquots (100 μl) were removed at specified times and added to acetonitrile (100 μl), vortexed, and centrifuged for one minute at maximum speed (Beckman microfuge). The supernatants were poured into new tubes, capped and stored on ice until HPLC analysis.
Samples were eluted isocratically at a flow rate of 1.0 ml/min with a mobile phase consisting of the following: A=acetic acid/acetonitrile/water (2:249:249, v/v/v) and B=acetonitrile, in A/B ratios of 50/50, 45/55 and 40/60 for mevastatin, lovastatin and simvastatin, respectively. Under the above conditions the retention times for the carboxylic acid formed and the lactone substrate were as follows: 4.5/6.4 min (mevastatin), 4.4/5.6 min (lovastatin) and 5.4/7.7 min (simvastatin), respectively. Response factors for the acid products were calculated from the peak heights after complete alkaline hydrolysis of the lactones in 0.02 M NAOH for 2-24 hours at 25° C.
This Example describes the expression of rabbit PON3 protein in bacteria. The endogenous NcoI site at the translation start site, and an engineered XhoI site in the 3′ UTR were used to clone the rPON3 cDNA into the bacterial expression vector pET24d+. The resulting vector (prPON3/pET24d) was transformed into bacterial BL21(DE3) cells. LB broth supplemented with […] Kanamycin was inoculated with a single colony and the bacteria were grown at 37° C. When the culture reached an OD600 of 0.7, IPTG (1 mM) was added and growth continued. Samples of the culture were taken at the time of induction and 1, 2, 4, and 16 hours post-induction. Samples were electrophoresed through a 10% SDS-PAGE gel and Western blotted with a human PON1 antibody. An inducible, 40 kDa band was visible in the 1, 2, 4, and 16 time point lanes that aligned with a rPON3 standard. The samples were also assayed and found to have 257, 8663, 6178, 5872, and 8436 U/ml statinase activity for time points 0, 1, 2, 4, and 16 respectively.

Data set [2] has as its system mice given LD100 dose of LPS. Particulars: cited from earlier work.
The test system of the next data set is LDL. Kind of data set: Protection of LDL against copper-induced oxidation (conjugated dienes, lipid peroxides). Format: biochemical, rabbit. Particulars: LDL 0.1 mg protein/ml, 2-10 μM CuSO4, up to 5 h at 37° C. The method, then:
In one illustrative example (Example 5) of the present invention, the ability of PON3 to protect against LDL oxidation was assayed. In this example, LDL oxidation was induced by the incubation of the lipoprotein with 2-10 μM CuSO4 in the air, in the absence or presence of PON3 or PON 1, for up to 5 h at 37° C. The kinetics of lipoprotein oxidation was followed by monitoring the conjugated dienes formation at 234 nm (Esterbauer et al., Free Radical Res Commun, 6:67-75 [1989]) using a quartz microtiter plate in a SPECTRAmax® 190 plate reader (Molecular Devices). Lipoprotein oxidation was also determined by the lipid peroxides test, which analyzes lipid peroxides by their capacity to convert iodide to iodine, as measured photometrically at 365 nm (E1-Saadani et al., J Lipid Res, 30:627-630 [1989]).
LDL were isolated by ultracentrifugation as described above (Example 4). […] The kinetics of lipoprotein oxidation was followed by monitoring the conjugated dienes formation at 234 nm (Esterbauer et al., Free Radical Res Commun, 6:67-75 [1989]) using a quartz microtiter plate in a SPECTRAmax 190 plate reader (Molecular Devices). Lipoprotein oxidation was also determined by the lipid peroxides test, which analyzes lipid peroxides by their capacity to convert iodide to iodine, as measured photometrically at 365 nm (E1-Saadani et al., J Lipid Res, 30:627-630 [1989]).

Data set [3] can be described thus: Lactonase activity of wild type and mutant rPON3 in expression media of transfected 293T cells. Format: biochemical. Particulars: Lovastatin hydrolysis; based on quantitation of western blot. The method, then:
as §1, with “Sigma. […]” for “Sigma.”
Samples were eluted isocratically at a flow rate of 1.0 ml/min with a mobile phase consisting of the following: A=acetic acid/acetonitrile/water (2:249:249, v/v/v) and B=acetonitrile, in A/B ratios of 50/50, 45/55 and 40/60 for mevastatin, lovastatin and simvastatin, respectively. […] Response factors for the acid products were calculated from the peak heights after complete alkaline hydrolysis of the lactones in 0.02 M NAOH for 2-24 hours at 25° C.
Expression media from the transient transfection of mutant clones into 293T cells was analyzed for activity towards the lactone Lovastatin up to 4 days post transfection.
Specific activities were calculated based on quantitation of the western blot in FIG. 10. […]
In general terms: Immunoblotting shows a protein as a band on a membrane.

B1: rPON3: recombinant rabbit PON3 expressed in 293T cells or E. coli BL21(DE3) (protein)
chain: AKLLLLTLLGASLAFVGERLLAFRNSFGAVQELEPVEPQNCVLIEGLENGSEDIDILPSGLAFISSGLKYPGMPNFAPDEPGKIFLIDMNEKNPRAQELEISNGFEKESFNPHGISTFIDKDHTVYLYVVNHPHMKSTVEIFKFEEQQRSLVHLKTIKHELLKSVNNIVVLGPEQFYATRDHYFTNYVLALLEMFLDLHWTSVLFYSPKEVKVVAKGFSSANGITVSLDKKYVYVADATAKNVHVMEKHDNWDLTELKVIHLDTLVDNLSVDPATGDILAGCHPNGMKLLNYNPEDPPGSEVLRIQNVLSEKPRVSTVYTNDGSVLQGSTVASVYQGKILIGTIFHKTLYCVL
For the molecule B1, the statinase activity in data set [1] (1 hour post-induction) worked out at 8663 U/ml; in data set [1] (2 hours post-induction), 6178 U/ml; in data set [1] (4 hours post-induction), 5872 U/ml; in data set [1] (16 hours post-induction), 8436 U/ml; in data set [1] (time point 0 (time of IPTG induction)) it was 257 U/ml.

B2: human PON1: purified human PON1 (paraoxonase 1), literature study of LaDu et al. (protein, UniProt P27169 2-355, looked up)
Serum …: AKLIALTLLGMGLALFRNHQSSYQTRLNALREVQPVELPNCNLVKGIETGSEDLEILPNGLAFISSGLKYPGIKSFNPNSPGKILLMDLNEEDPTVLELGITGSKFDVSSFNPHGISTFTDEDNAMYLLVVNHPDAKSTVELFKFQEEEKSLLHLKTIRHKLLPNLNDIVAVGPEHFYGTNDHYFLDPYLQSWEMYLGLAWSYVVYYSPSEVRVVAEGFDFANGINISPDGKYVYIAELLAHKIHVYEKHANWTLTPLKSLDFNTLVDNISVDPETGDLWVGCHPNGMKIFFYDSENPPASEVLRIQNILTEEPKVTQVYAENGTVLQGSTVASVYKGKLLIGTVFHKALYCEL
B2: the “survival, pretreated animals” value in data set [2] (i.p. injection before LD100 dose of LPS) is 60%. In addition, the “survival, post-treated animals” value in data set [2] (i.p. injection up to 2 hours after LD100 dose of LPS) is listed as 30%.

B3: PON3: paroxonase 3 polypeptide purified from rabbit serum, 40 kDa, SEQ ID NO:8 (protein, listed as Oryctolagus cuniculus)
chain: MAKLLLLTLLGASLAFVGERLLAFRNSFGAVQELEPVEPQNCVLIEGLENGSEDIDILPSGLAFISSGLKYPGMPNFAPDEPGKIFLIDMNEKNPRAQELEISNGFEKESFNPHGISTFIDKDHTVYLYVVNHPHMKSTVEIFKFEEQQRSLVHLKTIKHELLKSVNNIVVLGPEQFYATRDHYFTNYVLALLEMFLDLHWTSVLFYSPKEVKVVAKGFSSANGITVSLDKKYVYVADATAKNVHVMEKHDNWDLTELKVIHLDTLVDNLSVDPATGDILAGCHPNGMKLLNYNPEDPPGSEVLRIQNVLSEKPRVSTVYTNDGSVLQGSTVASVYQGKILIGTIFHKTLYCVL
In the case of B3, the “inhibiting conjugated diene and lipid peroxide formation, compared with PON1” value in the data set on LDL is recorded as “significantly better”.

B4: K243H: site-directed single amino acid change mutant of rabbit PON3, SEQ ID NO:12 (protein, listed as Oryctolagus cuniculus)
chain: MAKLLLLTLLGASLAFVGERLLAFRNSFGAVQELEPVEPQNCVLIEGLENGSEDIDILPSGLAFISSGLKYPGMPNFAPDEPGKIFLIDMNEKNPRAQELEISNGFEKESFNPHGISTFIDKDHTVYLYVVNHPHMKSTVEIFKFEEQQRSLVHLKTIKHELLKSVNNIVVLGPEQFYATRDHYFTNYVLALLEMFLDLHWTSVLFYSPKEVKVVAKGFSSANGITVSLDKKYVYVADATAHNVHVMEKHDNWDLTELKVIHLDTLVDNLSVDPATGDILAGCHPNGMKLLNYNPEDPPGSEVLRIQNVLSEKPRVSTVYTNDGSVLQGSTVASVYQGKILIGTIFHKTLYCVL
For the molecule B4, in data set [3], the “specific activity compared to the wild type (fraction)” value is “about ⅓”.

B5: L281W: site-directed single amino acid change mutant of rabbit PON3, SEQ ID NO:14 (protein, listed as Oryctolagus cuniculus)
chain: MAKLLLLTLLGASLAFVGERLLAFRNSFGAVQELEPVEPQNCVLIEGLENGSEDIDILPSGLAFISSGLKYPGMPNFAPDEPGKIFLIDMNEKNPRAQELEISNGFEKESFNPHGISTFIDKDHTVYLYVVNHPHMKSTVEIFKFEEQQRSLVHLKTIKHELLKSVNNIVVLGPEQFYATRDHYFTNYVLALLEMFLDLHWTSVLFYSPKEVKVVAKGFSSANGITVSLDKKYVYVADATAKNVHVMEKHDNWDLTELKVIHLDTLVDNLSVDPATGDIWAGCHPNGMKLLNYNPEDPPGSEVLRIQNVLSEKPRVSTVYTNDGSVLQGSTVASVYQGKILIGTIFHKTLYCVL
With B5, in data set [3], the “specific activity compared to the wild type (fraction)” value is reported as “about ⅓”.

The record behind these values is US6916472B2, “PON3 and uses thereof” (Regents of the University of Michigan, priority 2000, dated 2005).
